According to article PMC9482650, “Quantitative fragmentomics allow affinity mapping of interactomes” (Nature Communications, 2022):
Numbering of substitutions follows the chain as printed.

molecular target: ARHGEF12, Q9NZN5-2; assay: holdup assay; parameters: key: below the threshold = too weak to quantify, mostly under pKd 3.1 to 4; settings: plain residues with an end cap or a label only (N-terminal biotin on a linker: ado-ado)
Sequence (Q9NZN5 other isoform, or with tags, fused parts or gaps): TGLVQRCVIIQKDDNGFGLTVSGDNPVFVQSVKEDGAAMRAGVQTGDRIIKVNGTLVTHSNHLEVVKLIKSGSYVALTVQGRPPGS

pKd | Binder
3.81 | PLATCDETSI [SEMA4F, O95754]

molecular target: DLG1_2, Q12959; assay: holdup assay; parameters: key: below the threshold = too weak to quantify, mostly under pKd 3.1 to 4; settings: plain residues with an end cap or a label only (N-terminal biotin on a linker: ado-ado)
Sequence (Q12959 314-412): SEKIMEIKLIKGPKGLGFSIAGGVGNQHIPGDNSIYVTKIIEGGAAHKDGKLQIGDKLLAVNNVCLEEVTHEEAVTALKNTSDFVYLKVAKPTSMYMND

pKd | Binder
3.92 | PLATCDETSI [SEMA4F, O95754]

molecular target: T1, DLG3_1, Q92796; assay: holdup assay; parameters: key: below the threshold = too weak to quantify, mostly under pKd 3.1 to 4; settings: plain residues with an end cap or a label only (N-terminal biotin on a linker: ado-ado)
T1 sequence (Q92796 125-227, limits assumed, looked up): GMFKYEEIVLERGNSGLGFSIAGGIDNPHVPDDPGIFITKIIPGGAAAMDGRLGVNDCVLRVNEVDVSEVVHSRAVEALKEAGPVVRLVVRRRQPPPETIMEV

pKd | Binder
below the threshold | PLATCDETSI [SEMA4F, O95754]

molecular target: T2, DLG3_3, Q92796; assay: holdup assay; parameters: key: below the threshold = too weak to quantify, mostly under pKd 3.1 to 4; settings: plain residues with an end cap or a label only (N-terminal biotin on a linker: ado-ado)
T2 sequence (Q92796 374-475, limits assumed, looked up): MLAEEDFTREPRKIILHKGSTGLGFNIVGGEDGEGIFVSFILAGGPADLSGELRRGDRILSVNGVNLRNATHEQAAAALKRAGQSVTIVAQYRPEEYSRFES

pKd | Binder
below the threshold | PLATCDETSI [SEMA4F, O95754]

molecular target: DLG5_1, Q8TDM6; assay: holdup assay; parameters: key: below the threshold = too weak to quantify, mostly under pKd 3.1 to 4; settings: plain residues with an end cap or a label only (N-terminal biotin on a linker: ado-ado)
Sequence (Q8TDM6 617-713): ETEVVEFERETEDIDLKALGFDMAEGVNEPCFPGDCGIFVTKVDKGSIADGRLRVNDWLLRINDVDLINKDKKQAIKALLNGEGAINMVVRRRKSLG

pKd | Binder
below the threshold | PLATCDETSI [SEMA4F, O95754]

molecular target: T3, DVL3, Q92997; assay: holdup assay; parameters: key: below the threshold = too weak to quantify, mostly under pKd 3.1 to 4; settings: plain residues with an end cap or a label only (N-terminal biotin on a linker: ado-ado)
T3 sequence (Q92997 244-331, limits assumed, looked up): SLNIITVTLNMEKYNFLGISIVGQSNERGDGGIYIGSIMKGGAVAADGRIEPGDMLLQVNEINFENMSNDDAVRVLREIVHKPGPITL

pKd | Binder
below the threshold | PLATCDETSI [SEMA4F, O95754]

molecular target: FRMPD2_1, Q68DX3; assay: holdup assay; parameters: key: below the threshold = too weak to quantify, mostly under pKd 3.1 to 4; settings: plain residues with an end cap or a label only (N-terminal biotin on a linker: ado-ado)
Sequence (Q68DX3 770-861): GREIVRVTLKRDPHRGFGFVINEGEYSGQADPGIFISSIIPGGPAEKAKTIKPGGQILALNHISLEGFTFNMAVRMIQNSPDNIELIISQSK

pKd | Binder
below the threshold | PLATCDETSI [SEMA4F, O95754]

molecular target: GOPC, Q9HD26; assay: holdup assay; parameters: key: below the threshold = too weak to quantify, mostly under pKd 3.1 to 4; settings: plain residues with an end cap or a label only (N-terminal biotin on a linker: ado-ado)

pKd | Binder
below the threshold | PLATCDETSI [SEMA4F, O95754]

molecular target: GORASP2, Q9H8Y8; assay: holdup assay; parameters: key: below the threshold = too weak to quantify, mostly under pKd 3.1 to 4; settings: plain residues with an end cap or a label only (N-terminal biotin on a linker: ado-ado)

pKd | Binder
below the threshold | PLATCDETSI [SEMA4F, O95754]

molecular target: GRASP, Q7Z6J2; assay: holdup assay; parameters: key: below the threshold = too weak to quantify, mostly under pKd 3.1 to 4; settings: plain residues with an end cap or a label only (N-terminal biotin on a linker: ado-ado)
Sequence (Q7Z6J2 96-193): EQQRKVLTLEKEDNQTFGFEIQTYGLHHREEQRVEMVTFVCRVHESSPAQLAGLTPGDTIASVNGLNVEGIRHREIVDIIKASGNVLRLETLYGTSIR

pKd | Binder
below the threshold | PLATCDETSI [SEMA4F, O95754]

molecular target: GRID2IP_1, A4D2P6; assay: holdup assay; parameters: key: below the threshold = too weak to quantify, mostly under pKd 3.1 to 4; settings: plain residues with an end cap or a label only (N-terminal biotin on a linker: ado-ado)
Sequence (A4D2P6 1-87): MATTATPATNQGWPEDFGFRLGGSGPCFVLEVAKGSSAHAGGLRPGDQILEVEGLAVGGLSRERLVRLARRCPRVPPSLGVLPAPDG

pKd | Binder
below the threshold | PLATCDETSI [SEMA4F, O95754]

molecular target: Inadl_1, Q8NI35; assay: holdup assay; parameters: key: below the threshold = too weak to quantify, mostly under pKd 3.1 to 4; settings: plain residues with an end cap or a label only (N-terminal biotin on a linker: ado-ado)
Sequence (Q8NI35 113-229): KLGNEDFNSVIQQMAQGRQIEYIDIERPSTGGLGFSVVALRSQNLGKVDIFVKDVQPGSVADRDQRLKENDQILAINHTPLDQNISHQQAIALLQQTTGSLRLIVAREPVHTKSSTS

pKd | Binder
below the threshold | PLATCDETSI [SEMA4F, O95754]

molecular target: Inadl_10, Q8NI35; assay: holdup assay; parameters: key: below the threshold = too weak to quantify, mostly under pKd 3.1 to 4; settings: plain residues with an end cap or a label only (N-terminal biotin on a linker: ado-ado)
Sequence (Q8NI35 1673-1763): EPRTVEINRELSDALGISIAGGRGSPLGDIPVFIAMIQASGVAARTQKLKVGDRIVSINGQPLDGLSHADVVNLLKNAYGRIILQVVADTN

pKd | Binder
below the threshold | PLATCDETSI [SEMA4F, O95754]

molecular target: Inadl_5, Q8NI35; assay: holdup assay; parameters: key: below the threshold = too weak to quantify, mostly under pKd 3.1 to 4; settings: plain residues with an end cap or a label only (N-terminal biotin on a linker: ado-ado)
Sequence (Q8NI35 673-780): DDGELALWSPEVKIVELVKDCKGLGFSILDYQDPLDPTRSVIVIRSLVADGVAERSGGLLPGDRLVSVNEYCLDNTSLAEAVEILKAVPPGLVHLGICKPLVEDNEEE

pKd | Binder
below the threshold | PLATCDETSI [SEMA4F, O95754]

molecular target: Inadl_9, Q8NI35; assay: holdup assay; parameters: key: below the threshold = too weak to quantify, mostly under pKd 3.1 to 4; settings: plain residues with an end cap or a label only (N-terminal biotin on a linker: ado-ado)
Sequence (Q8NI35 1530-1615): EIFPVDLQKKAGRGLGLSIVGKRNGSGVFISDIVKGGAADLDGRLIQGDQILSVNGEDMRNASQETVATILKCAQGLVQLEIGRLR

pKd | Binder
below the threshold | PLATCDETSI [SEMA4F, O95754]

molecular target: T4, LIN7A, O14910; assay: holdup assay; parameters: key: below the threshold = too weak to quantify, mostly under pKd 3.1 to 4; settings: plain residues with an end cap or a label only (N-terminal biotin on a linker: ado-ado)
T4 sequence (O14910 103-200, limits assumed, looked up): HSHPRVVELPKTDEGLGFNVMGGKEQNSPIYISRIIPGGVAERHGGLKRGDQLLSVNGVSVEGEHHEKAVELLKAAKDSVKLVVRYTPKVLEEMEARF

pKd | Binder
below the threshold | PLATCDETSI [SEMA4F, O95754]

molecular target: T5, LIN7B, Q9HAP6; assay: holdup assay; parameters: key: below the threshold = too weak to quantify, mostly under pKd 3.1 to 4; settings: plain residues with an end cap or a label only (N-terminal biotin on a linker: ado-ado)
T5 sequence (Q9HAP6 88-185, limits assumed, looked up): T4 sequence (O14910 103-200, limits assumed, looked up) with S2A, V20I, I35V, E42D, H65Q, K77Q, D78G, K89R

pKd | Binder
3.78 | PLATCDETSI [SEMA4F, O95754]

molecular target: LNX1_1, Q8TBB1; assay: holdup assay; parameters: key: below the threshold = too weak to quantify, mostly under pKd 3.1 to 4; settings: plain residues with an end cap or a label only (N-terminal biotin on a linker: ado-ado)
Sequence (Q8TBB1 261-371): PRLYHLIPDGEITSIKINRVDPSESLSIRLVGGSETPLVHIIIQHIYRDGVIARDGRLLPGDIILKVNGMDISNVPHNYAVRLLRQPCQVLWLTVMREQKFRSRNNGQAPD

pKd | Binder
below the threshold | PLATCDETSI [SEMA4F, O95754]

molecular target: MAGI2_2, Q86UL8; assay: holdup assay; parameters: key: below the threshold = too weak to quantify, mostly under pKd 3.1 to 4; settings: plain residues with an end cap or a label only (N-terminal biotin on a linker: ado-ado)
Sequence (Q86UL8 410-522): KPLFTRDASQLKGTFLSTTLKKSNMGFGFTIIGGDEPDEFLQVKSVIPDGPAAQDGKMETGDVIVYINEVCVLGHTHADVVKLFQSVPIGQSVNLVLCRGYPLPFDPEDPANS

pKd | Binder
below the threshold | PLATCDETSI [SEMA4F, O95754]

molecular target: MAGI2_6, Q86UL8; assay: holdup assay; parameters: key: below the threshold = too weak to quantify, mostly under pKd 3.1 to 4; settings: plain residues with an end cap or a label only (N-terminal biotin on a linker: ado-ado)
Sequence (Q86UL8 1141-1229): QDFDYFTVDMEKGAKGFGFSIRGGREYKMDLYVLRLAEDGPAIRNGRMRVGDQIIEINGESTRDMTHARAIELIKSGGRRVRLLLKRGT

pKd | Binder
3.87 | PLATCDETSI [SEMA4F, O95754]

molecular target: MAST2, Q6P0Q8; assay: holdup assay; parameters: key: below the threshold = too weak to quantify, mostly under pKd 3.1 to 4; settings: plain residues with an end cap or a label only (N-terminal biotin on a linker: ado-ado)
Sequence (Q6P0Q8 1099-1202): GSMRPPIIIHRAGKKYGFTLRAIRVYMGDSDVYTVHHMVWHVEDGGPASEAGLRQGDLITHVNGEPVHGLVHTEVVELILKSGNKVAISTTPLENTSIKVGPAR

pKd | Binder
5.42 | PLATCDETSI [SEMA4F, O95754]

molecular target: T6, MPDZ_12, O75970; assay: holdup assay; parameters: key: below the threshold = too weak to quantify, mostly under pKd 3.1 to 4; settings: plain residues with an end cap or a label only (N-terminal biotin on a linker: ado-ado)
T6 sequence (O75970 1857-1958, limits assumed, looked up): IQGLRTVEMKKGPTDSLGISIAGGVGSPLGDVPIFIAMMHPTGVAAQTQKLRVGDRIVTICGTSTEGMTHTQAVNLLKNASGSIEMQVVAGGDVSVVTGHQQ

pKd | Binder
below the threshold | PLATCDETSI [SEMA4F, O95754]

molecular target: NHERF2_2, Q15599; assay: holdup assay; parameters: key: below the threshold = too weak to quantify, mostly under pKd 3.1 to 4; settings: plain residues with an end cap or a label only (N-terminal biotin on a linker: ado-ado)
Sequence (Q15599 142-238): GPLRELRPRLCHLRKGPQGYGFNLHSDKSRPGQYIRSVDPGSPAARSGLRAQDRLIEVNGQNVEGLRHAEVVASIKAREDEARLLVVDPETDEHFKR

pKd | Binder
4.31 | PLATCDETSI [SEMA4F, O95754]

molecular target: NHERF4_4, Q86UT5; assay: holdup assay; parameters: key: below the threshold = too weak to quantify, mostly under pKd 3.1 to 4; settings: plain residues with an end cap or a label only (N-terminal biotin on a linker: ado-ado)
Sequence (Q86UT5 464-550): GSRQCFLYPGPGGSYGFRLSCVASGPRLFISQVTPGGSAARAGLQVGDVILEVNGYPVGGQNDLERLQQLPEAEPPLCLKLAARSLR

pKd | Binder
below the threshold | PLATCDETSI [SEMA4F, O95754]

molecular target: T7, PCLO, Q9Y6V0; assay: holdup assay; parameters: key: below the threshold = too weak to quantify, mostly under pKd 3.1 to 4; settings: plain residues with an end cap or a label only (N-terminal biotin on a linker: ado-ado)
T7 sequence (Q9Y6V0 4491-4600, limits assumed, looked up): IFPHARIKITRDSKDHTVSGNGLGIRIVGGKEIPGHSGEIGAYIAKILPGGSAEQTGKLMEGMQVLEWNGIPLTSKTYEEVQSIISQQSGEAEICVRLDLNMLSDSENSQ

pKd | Binder
below the threshold | PLATCDETSI [SEMA4F, O95754]

molecular target: T8, PTPN13_1, Q12923; assay: holdup assay; parameters: key: below the threshold = too weak to quantify, mostly under pKd 3.1 to 4; settings: plain residues with an end cap or a label only (N-terminal biotin on a linker: ado-ado)
T8 sequence (Q12923 1088-1188, limits assumed, looked up): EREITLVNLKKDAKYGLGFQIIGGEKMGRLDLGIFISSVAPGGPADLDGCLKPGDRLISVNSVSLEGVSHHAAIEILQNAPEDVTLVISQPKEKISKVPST

pKd | Binder
below the threshold | PLATCDETSI [SEMA4F, O95754]

molecular target: T9, SHANK1, Q9Y566; assay: holdup assay; parameters: key: below the threshold = too weak to quantify, mostly under pKd 3.1 to 4; settings: plain residues with an end cap or a label only (N-terminal biotin on a linker: ado-ado)
T9 sequence (Q9Y566 658-767, limits assumed, looked up): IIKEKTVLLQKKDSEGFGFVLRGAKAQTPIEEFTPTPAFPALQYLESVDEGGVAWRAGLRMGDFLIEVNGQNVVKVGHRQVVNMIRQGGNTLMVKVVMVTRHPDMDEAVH

pKd | Binder
3.87 | PLATCDETSI [SEMA4F, O95754]

molecular target: T10, TX1BP3, O14907; assay: holdup assay; parameters: key: below the threshold = too weak to quantify, mostly under pKd 3.1 to 4; settings: plain residues with an end cap or a label only (N-terminal biotin on a linker: ado-ado)
T10 sequence (O14907 10-122, limits assumed, looked up): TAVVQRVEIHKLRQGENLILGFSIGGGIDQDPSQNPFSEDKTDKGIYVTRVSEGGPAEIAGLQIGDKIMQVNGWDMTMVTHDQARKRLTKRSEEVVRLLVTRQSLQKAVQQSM

pKd | Binder
below the threshold | PLATCDETSI [SEMA4F, O95754]
